B1: CPEB3 Ribozyme (parent)
chain: GGGGGCCACAGCAGAAGCGUUCACGUCGCGGCCCCUGUCAGAUUCUGGUGAAUCUGCGAAUUCUGCUGU

Variants of B1 are the subject of this data set. Description: self-cleavage, relative activity (ratio to wild type); higher = more cleavage; co-transcriptional.
Turning to C9G G56U, the self-cleavage worked out at 0.97.

Turning to C9G G56A, the self-cleavage was 1.01.

Consider C9G G56C, for which the self-cleavage was found to be 0.924.

On to C9U U69C, for which the self-cleavage stood at 1.07.

Turning to C9G C34A, the self-cleavage came to 0.953.

As to C9G C34U, the self-cleavage was 1.01.

As to C9G G28C, the self-cleavage is 0.149.

Take C9G G28A: the self-cleavage was 0.264.

On to C9U C57G, for which the self-cleavage turned out to be 0.334.

With A10U C27A, the self-cleavage amounted to 0.272.

Consider A10U C27U, for which the self-cleavage came out at 0.547.

For A10G C27U, the self-cleavage worked out at 0.613.

As to C9A U46G, the self-cleavage was determined as 1.04.

Turning to A10G G47U, the self-cleavage worked out at 0.919.

Regarding A10G U38A, the self-cleavage was found to be 0.784.

On to A10G U38C, for which the self-cleavage is 0.906.

For A10G U38G, the self-cleavage worked out at 0.182.

As for C9G U36A, the self-cleavage came to 0.256.

With A10C G28C, the self-cleavage stood at 0.102.

C9G A40U: the self-cleavage was determined as 0.827.

For the variant C9G A40C, the self-cleavage came to 0.715.

Take C9U C39U: the self-cleavage was 0.935.

Turning to C9U A40C, the self-cleavage was 0.841.

As to A10G A59G, the self-cleavage came to 0.925.

For A10G U62C, the self-cleavage came out at 0.376.

With C9U A16G, the self-cleavage came out at 0.956.

In the case of C9U A16U, the self-cleavage turned out to be 0.864.

Turning to A10U G31U, the self-cleavage is 0.895.

For A10U G31A, the self-cleavage came out at 0.976.

As to A10G U64G, the self-cleavage was found to be 0.398.

Turning to C9U A59U, the self-cleavage is 0.888.

C9U A59C: the self-cleavage stood at 0.877.

For C9U G68C, the self-cleavage amounted to 1.03.

Regarding C9G A15G, the self-cleavage is 0.988.

As for C9G A15U, the self-cleavage is 0.911.

With A10U G17A, the self-cleavage is 0.547.

On to C9G G41A, for which the self-cleavage came out at 0.872.

For A10C G19C, the self-cleavage worked out at 0.097.

For A10C G19U, the self-cleavage turned out to be 0.446.

As for A10U C63U, the self-cleavage came to 0.969.

With C9G C66A, the self-cleavage amounted to 0.831.

On to C9A U26G, for which the self-cleavage is 0.983.

As to A10C C18U, the self-cleavage worked out at 0.882.

As for A10C C18A, the self-cleavage came to 0.12.

In the case of A10C U21G, the self-cleavage is 0.535.

Consider A10C U21C, for which the self-cleavage was found to be 0.905.

Consider C9A G56C, for which the self-cleavage came to 0.921.

C9A G56U: the self-cleavage stood at 0.98.

For the variant A10C A52C, the self-cleavage was found to be 0.986.

For A10C A52U, the self-cleavage is 0.985.

With C9U C45G, the self-cleavage was found to be 1.07.

For C9U C54U, the self-cleavage was 0.988.

With C9U C32U, the self-cleavage was 1.02.

For C9G C18U, the self-cleavage came to 0.935.

As to C9A U36A, the self-cleavage was determined as 0.315.

With A10U A15C, the self-cleavage was found to be 0.746.

In the case of A10G C66A, the self-cleavage is 0.385.

With A10U C22A, the self-cleavage came to 0.208.

As to A10C G50U, the self-cleavage was found to be 1.

On to A10C G50C, for which the self-cleavage is 0.996.

For C9G G30C, the self-cleavage was 0.948.

For the variant C9G G30A, the self-cleavage stood at 0.975.

In the case of C9G G30U, the self-cleavage was found to be 0.759.

For the variant C9U G30C, the self-cleavage turned out to be 0.981.

On to C9U G30A, for which the self-cleavage stood at 0.972.

Regarding C9G U64G, the self-cleavage stood at 0.936.

On to C9G G47U, for which the self-cleavage was 1.04.

Take C9G G47A: the self-cleavage is 1.05.

In the case of A10C C34G, the self-cleavage was determined as 0.868.

With A10G U46A, the self-cleavage came to 0.91.

As to A10U A59G, the self-cleavage came to 0.968.

For A10G G14C, the self-cleavage worked out at 0.0631.

On to C9G A52C, for which the self-cleavage is 0.985.

On to C9G A52U, for which the self-cleavage amounted to 1.04.

Consider A10G G37A, for which the self-cleavage stood at 0.219.

For the variant A10G G37U, the self-cleavage was found to be 0.11.

In the case of C9U C12G, the self-cleavage amounted to 0.976.

Take C9U C12A: the self-cleavage amounted to 0.785.

For the variant C9U C12U, the self-cleavage was found to be 1.01.

With A10C C27G, the self-cleavage worked out at 0.0915.

Consider A10C C33U, for which the self-cleavage is 0.98.

On to C9U G14U, for which the self-cleavage amounted to 0.898.

Turning to C9U G14C, the self-cleavage was determined as 0.747.

With C9G C63G, the self-cleavage is 0.799.

Turning to C9G G58A, the self-cleavage was determined as 1.01.

Regarding C9G C57U, the self-cleavage turned out to be 0.356.

On to C9U G37C, for which the self-cleavage turned out to be 0.224.

Consider C9U G37U, for which the self-cleavage came to 0.432.

For A10C G11C, the self-cleavage came to 0.764.

For the variant C9A U20C, the self-cleavage was found to be 0.197.

Turning to A10U A42C, the self-cleavage stood at 0.937.

In the case of C9G G31A, the self-cleavage was 0.936.

On to C9G U44G, for which the self-cleavage amounted to 0.96.

Consider A10U C54A, for which the self-cleavage turned out to be 0.902.

As to A10U C54G, the self-cleavage was 0.958.

For the variant A10C A40G, the self-cleavage was determined as 0.976.

As to A10U A40G, the self-cleavage was determined as 0.951.

As to C9U A52G, the self-cleavage was found to be 0.673.

Take C9A U21A: the self-cleavage turned out to be 1.01.

For the variant C9U G65A, the self-cleavage amounted to 0.965.

As to A10C G47C, the self-cleavage was found to be 1.

For C9U G17U, the self-cleavage worked out at 0.832.

For the variant C9U G17C, the self-cleavage was 0.32.

Take C9A U62G: the self-cleavage was found to be 0.943.

Regarding C9A U62C, the self-cleavage was 0.931.

Regarding C9A U38G, the self-cleavage was 0.152.

Regarding C9A U38A, the self-cleavage stood at 0.989.

As for C9U C29U, the self-cleavage was 0.874.

Consider C9G C24G, for which the self-cleavage is 0.608.

As for A10U G50U, the self-cleavage turned out to be 0.978.

Consider A10U C45G, for which the self-cleavage worked out at 0.949.

For A10G C33G, the self-cleavage stood at 0.854.

For the variant A10G C33U, the self-cleavage was 0.953.

For A10G A42C, the self-cleavage stood at 0.668.

On to A10C C45G, for which the self-cleavage was found to be 1.05.

Take C9U U62A: the self-cleavage turned out to be 0.997.

With C9U U62C, the self-cleavage came to 0.966.

On to A10G G41A, for which the self-cleavage came to 0.37.

As for A10G G41C, the self-cleavage came out at 0.326.

As for C9G A23C, the self-cleavage was 0.993.

In the case of A10U G28A, the self-cleavage came out at 0.139.

For A10U G28C, the self-cleavage was 0.137.

For A10U G28U, the self-cleavage worked out at 0.14.

Take C9U U20G: the self-cleavage was 0.17.

For A10C C66U, the self-cleavage was 0.974.

In the case of A10C C66A, the self-cleavage was 0.862.

Consider A10C C66G, for which the self-cleavage was found to be 0.892.

Turning to C9U A13G, the self-cleavage turned out to be 1.04.

For A10C C32G, the self-cleavage amounted to 0.418.

For the variant A10C G14C, the self-cleavage was determined as 0.252.

Regarding C9U U21G, the self-cleavage stood at 0.801.

On to C9U U21A, for which the self-cleavage worked out at 0.932.

For the variant A10C U43G, the self-cleavage turned out to be 0.808.

As to A10C U43A, the self-cleavage was 0.892.

For the variant A10C U43C, the self-cleavage was 0.965.

In the case of A10G U61A, the self-cleavage is 0.6.

On to C9G C54G, for which the self-cleavage amounted to 0.926.

Consider A10G U26A, for which the self-cleavage was determined as 0.933.

Take A10G U26G: the self-cleavage was 0.877.

In the case of A10G U26C, the self-cleavage worked out at 0.351.

As to A10C C63G, the self-cleavage came out at 0.629.

C9A U53G: the self-cleavage came out at 1.

With A10G G31C, the self-cleavage was determined as 0.322.

For the variant A10G C34U, the self-cleavage was found to be 0.982.

On to A10G U44G, for which the self-cleavage turned out to be 0.71.

In the case of C9U G11U, the self-cleavage was 0.945.

Regarding A10G C12U, the self-cleavage is 0.948.

In the case of A10G C12A, the self-cleavage was 0.356.

A10G C12G: the self-cleavage was determined as 0.742.

Regarding A10U C66A, the self-cleavage is 0.845.

In the case of A10U C66G, the self-cleavage came to 0.924.

C9G U49C: the self-cleavage is 1.01.

Consider C9G U49A, for which the self-cleavage worked out at 1.

For C9G U49G, the self-cleavage was 0.954.

Regarding A10U C18U, the self-cleavage came out at 0.883.

On to A10U C18A, for which the self-cleavage was 0.222.

Take A10U A52U: the self-cleavage was 1.02.

C9G A16C: the self-cleavage came out at 0.548.

Regarding A10G G17C, the self-cleavage stood at 0.106.

Consider C9A U67A, for which the self-cleavage worked out at 1.03.

On to A10C C29U, for which the self-cleavage amounted to 0.221.

As to A10C G58A, the self-cleavage worked out at 0.961.

C9U C33G: the self-cleavage was determined as 0.974.

For the variant A10C A59C, the self-cleavage is 0.832.

Turning to A10C A59G, the self-cleavage came to 1.

A10U A60G: the self-cleavage stood at 0.953.

As for C9G A59C, the self-cleavage amounted to 0.896.

The values above are taken from the RNAGym collection of RNA variant scans (doi:10.7554/elife.80360).
